The results in this text go back to US10532083B2, “Methods for inducing differentiation or conversion of white adipocytes and/or preadipocytes to brown adipocites using FGF8” (Technische Universität München, priority 2014, dated 2020).

The test system of one data set is inguinal adipose tissue. Nature of the data set: FGF8b releasing pellet implanted into inguinal (subcutaneous) adipose tissue in vivo. Set-up: species or system 129Sv/ev mice. The settings on record: FGF8b pellets implanted into inguinal adipose tissue. On the procedure: Pellets 1.5 mm in diameter were fabricated from a biodegradable matrix to locally release 100 ng FGF8b per day for 21 days (Innovative Research of America, Sarasota, Fla., USA). […] To implant a pellet into the subcutaneous adipose tissue, a mouse of the 129Sv/ev strain was anesthetized, abdominal fur removed and the pellet pushed into the depot through a short cut in the skin. To target the visceral adipose tissue, the pellet was introduced through a small cut each into skin and abdominal wall and placed between lobes of epididymal adipose tissue. Mice were kept in a specific pathogen free barrier facility at room temperature in a 12:12 hour light:dark cycle with free access to food and water. Three weeks after implantation mice were killed by carbon dioxide exposure and dissected. Blood parameters were analyzed with an automated clinical chemistry analyzer (Piccolo xpress system, Abaxis, Darmstadt, Germany). All animal experiments were performed according to the German animal welfare law (permission no. 55.2-1-54-2532-174-11). By visual inspection, the implantation site of FGF8b pellets and the surrounding adipose tissue was of a brown colour, while both the non-implanted contralateral depot and the implantation site of placebo pellets remained characteristically white (FIG. 6A). […]

Data set [1] has as its system epididymal white adipose tissue. The data set is classed as in vivo, adult male 129Sv/ev mice. An excerpt:
Implantation of Ffg8b releasing pellets into the visceral, epididymal white adipose tissue depot leads to recruitment of brown adipocytes. A—Representative photographs centered on the implantation site of three control pellets (upper panels) and three Fgf8b pellets (lower panels). The epididymal fat depot is discernible in light gray shades surrounded by darker non-adipose tissues. The area of visible browning is marked by a dotted line. B—To highlight “visual browning” in this gray-scale images we digitally removed all pixels with a colour saturation of more than 162 (on a scale of 0-255). Here, white areas correspond to brown colour on a background of whitish adipose tissue. C—The mRNA abundance of several brown adipocyte marker genes in the entire depot. Ucp1 and Cox7a1 mRNA are increased by Fgf8b treatment but not by the placebo pellet. Physiological data of animals implanted with drug release pellets. A—The absolute body mass of mice was not altered by Fgf8b. […] C—The masses of the implanted epididymal fat depot and the contralateral non-implanted depot were not different. Interscapular brown adipose tissue was not different in placebo and Fgf8b treated animals. […] E—Plasma metabolites of carbohydrate and lipid metabolisms were not affected by Fgf8b treatment (GLU—glucose, CHOL—total cholesterol, nHDLc—non-HDL cholesterol, HDL—high density lipoproteins, LDL—low density lipoproteins, VLDL—very low density lipoproteins, TRIG—triglycerides). F—Liver enzymes in the plasma were not altered by Fgf8b treatment. Pellets 1.5 mm in diameter were fabricated from a biodegradable matrix to locally release 100 ng FGF8b per day for 21 days (Innovative Research of America, Sarasota, Fla., USA). […] To implant a pellet into the subcutaneous adipose tissue, a mouse of the 129Sv/ev strain was anesthetized, abdominal fur removed and the pellet pushed into the depot through a short cut in the skin. To target the visceral adipose tissue, the pellet was introduced through a small cut each into skin and abdominal wall and placed between lobes of epididymal adipose tissue. Mice were kept in a specific pathogen free barrier facility at room temperature in a 12:12 hour light:dark cycle with free access to food and water. Three weeks after implantation mice were killed by carbon dioxide exposure and dissected. Blood parameters were analyzed with an automated clinical chemistry analyzer (Piccolo xpress system, Abaxis, Darmstadt, Germany). All animal experiments were performed according to the German animal welfare law (permission no. 55.2-1-54-2532-174-11). To investigate the ability of FGF8b to transform white adipose tissue into brown adipose tissue in vivo, we obtained pellets that release 100 ng FGF8b per day and placebo pellets. One pellet each was implanted into the epididymal white adipose tissue of adult male 129Sv/ev mice. After three weeks mice were sacrificed and the tissue analyzed. […] In summary, we found no evidence of any gross metabolic difference between treatment groups.

The mark [2] stands for this setting: RNA preparation of complete unilateral epididymal depot, 100 ng per day, three weeks, vs placebo pellet.

B1: FGF8b: murine recombinant paracrine fibroblast growth factor 8, major spliceform b (R&D Systems); amino acid sequence identical to human, SEQ ID NO:16/20 (protein)
chain: MGSPRSALSCLLLHLLVLCLQAQVTVQSSPNFTQHVREQSLVTDQLSRRLIRTYQLYSRTSGKHVQVLANKRINAMAEDGDPFAKLIVETDTFGSRVRVRGAETGLYICMNKKGKLIAKSNGKGKDCVFTEIVLENNYTALQNAKYEGWYMAFTRKGRPRKGSKTRQHQREVHFMKRLPRGHHTTEQSLRFEFLNYPPFTRSLRGSQRTWAPEPR
modifications: human FGF8b
Regarding B1, in the data set on inguinal adipose tissue, the “Visual browning and expression of brown adipocyte marker genes” value is “did not lead to visual browning or increased expression of brown adipocyte marker genes”. Further, the “Relationship between depot mass and body mass” value in data set [1] (100 ng per day, three weeks, vs placebo (FIG. 7D)) is listed as “not influenced”. In addition, the “Depot mass of implanted and non-implanted epididymal fat and of interscapular brown adipose tissue” value in data set [1] (100 ng per day, three weeks, vs placebo group) is “not different between groups”. The Final body weight result in data set [1] (100 ng per day, three weeks, vs placebo group, lean healthy mice) is given as “comparable”. Besides, the “Plasma metabolites of carbohydrate and lipid metabolisms (GLU, CHOL, nHDLc, HDL, LDL, VLDL, TRIG)” value in data set [1] (100 ng per day, three weeks, vs placebo, Piccolo xpress analyzer) is recorded as “not affected”. The “Change in body weight during the 3 weeks of treatment” value in data set [1] (100 ng per day, vs placebo group) was “comparable”. In addition, in data set [1] (setting [2]), the “Cox7a1 mRNA abundance in the entire depot” value is recorded as “increased” and the “Ucp1 mRNA abundance in the entire depot” value is given as “increased”. The Systemic adverse reaction entry in data set [1] (mouse, in vivo) is on record as “no evidence for any systemic adverse reaction”. Moreover, the “Extent of browned area away from the implanted pellet” value in data set [1] (one pellet releasing 100 ng FGF8b per day, three weeks) was “approximately 3 mm”. In addition, the “Colour of implantation site and surrounding adipose tissue by visual inspection” value in data set [1] (one pellet releasing 100 ng FGF8b per day, three weeks, placebo site and contralateral depot remained white) is given as “brown colour”.
